According to patent US20260295010 (published 2026):
Where a chain is given by its changes, count along the chain named. Names may count otherwise. Like-named read-outs stand apart in the source and are kept apart here.

Legend:
Test in all cases: SPR, 25C
IL-12RB2-hFc [1] = target: T1, IL-12RB2-hFc (human, UniProt Q99665)
T1 chain: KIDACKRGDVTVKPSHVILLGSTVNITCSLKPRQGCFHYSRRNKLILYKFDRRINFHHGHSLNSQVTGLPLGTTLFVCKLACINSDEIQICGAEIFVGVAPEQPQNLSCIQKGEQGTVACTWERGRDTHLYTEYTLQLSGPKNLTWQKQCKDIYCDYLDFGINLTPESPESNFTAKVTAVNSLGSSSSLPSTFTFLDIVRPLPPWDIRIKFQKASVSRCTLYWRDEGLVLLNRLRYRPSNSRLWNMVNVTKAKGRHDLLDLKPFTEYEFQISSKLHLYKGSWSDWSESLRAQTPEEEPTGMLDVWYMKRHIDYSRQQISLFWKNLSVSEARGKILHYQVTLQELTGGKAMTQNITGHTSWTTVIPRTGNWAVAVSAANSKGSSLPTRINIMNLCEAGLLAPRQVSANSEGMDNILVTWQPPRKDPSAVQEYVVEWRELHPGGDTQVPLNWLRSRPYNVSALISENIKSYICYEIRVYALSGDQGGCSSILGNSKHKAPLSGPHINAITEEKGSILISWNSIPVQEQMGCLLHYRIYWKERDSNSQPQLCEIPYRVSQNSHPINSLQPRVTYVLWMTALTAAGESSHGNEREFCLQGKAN

IL-12RB1-hFc [2] = target: T2, IL-12RB1-hFc (human, UniProt P42701)
IL-12RB2-hFc [3] = target: T1, IL-12RB2-hFc
IL-12RB1-hFc [4] = target: T2, IL-12RB1-hFc; remark: listed apart in the source

B1: IL-12p70 I90A (protein)
chain 1: MIWELKKDVYVVELDWYPDAPGEMVVLTCDTPEEDGITWTLDQSSEVLGSGKTLTIQVKEFGDAGQYTCHKGGEVLSHSLLLLHKKEDGAWSTDILKDQKEPKNKTFLRCEAKNYSGRFTCWWLTTISTDLTFSVKSSRGSSDPQGVTCGAATLSAERVRGDNKEYEYSVECQEDSACPAAEESLPIEVMVDAVHKLKYENYTSSFFIRDIIKPDPPKNLQLKPLKNSRQVEVSWEYPDTWSTPHSYFSLTFSVQVQGKSKREKKDRVFTDKTSATVICRKNASISVRAQDRYYSSSWSEWASVPCSGGGSHHHHHH
chain 2: MRNLPVATPDPGMFPSLHHSQNLLRAVSNMLQKARQTLEFYPCTSEEIDHEDITKDKTSTVEACLPLELTKNESCLNSRETSFITNGSSLASRKTSFMMALCLSSIYEDLKMYQVEFKTMNAKLLMDPKRQIFLDQNMLAVIDELMQALNFNSETVPQKSSLEEPDFYKTKIKLCILLHAFRIRAVTIDRVMSYLNAS
IL-12RB2-hFc [1]
  Kd: 0.35 nM
IL-12RB1-hFc [2]
  Kd: 0.06 nM

B2: IL-12p70 D94A (protein)
chain 1: B1 chain 1 with A90I, D94A
chain 2: B1 chain 2
IL-12RB2-hFc [1]
  Kd: 0.43 nM
IL-12RB1-hFc [2]
  Kd: 0.69 nM

B3: IL-12p70 N201A (protein)
chain 1: B1 chain 1 with A90I, N201A
chain 2: B1 chain 2
IL-12RB2-hFc [1]
  Kd: 0.5 nM
IL-12RB1-hFc [2]
  Kd: 0.04 nM

B4: IL-12p70 W16A D94K K196E L197A (protein)
chain 1: B1 chain 1 with W16A, A90I, D94K, K196E, L197A
chain 2: B1 chain 2
IL-12RB2-hFc [3]
  Kd: 3 nM

B5: IL-12p70 T203A (protein)
chain 1: B1 chain 1 with A90I, T203A
chain 2: B1 chain 2
IL-12RB2-hFc [1]
  Kd: 0.5 nM
IL-12RB1-hFc [2]
  Kd: 0.04 nM

B6: IL-12p70 W16A D94K K196E (protein)
chain 1: B1 chain 1 with W16A, A90I, D94K, K196E
chain 2: B1 chain 2
IL-12RB2-hFc [3]
  Kd: 2.3 nM

B7: IL-12p70 K105E K265Y (protein)
chain 1: B1 chain 1 with A90I, K105E, K265Y
chain 2: B1 chain 2
IL-12RB2-hFc [3]
  Kd: 1.6 nM
IL-12RB1-hFc [4]
  Kd: 1.1 nM

B8: IL-12p70 K259Y K265Y (protein)
chain 1: B1 chain 1 with A90I, K259Y, K265Y
chain 2: B1 chain 2
IL-12RB2-hFc [3]
  Kd: 7 nM
IL-12RB1-hFc [4]
  Kd: 1.4 nM

B9: IL-12p70 W16A K196E (protein)
chain 1: B1 chain 1 with W16A, A90I, K196E
chain 2: B1 chain 2
IL-12RB2-hFc [3]
  Kd: 2.8 nM

B10: IL-12p70 W16A D94K K196E K265Y (protein)
chain 1: B1 chain 1 with W16A, A90I, D94K, K196E, K265Y
chain 2: B1 chain 2
IL-12RB2-hFc [3]
  Kd: 4.6 nM

B11: IL-12p70 K105E K259Y K265Y (protein)
chain 1: B1 chain 1 with A90I, K105E, K259Y, K265Y
chain 2: B1 chain 2
IL-12RB2-hFc [3]
  Kd: 4 nM
IL-12RB1-hFc [4]
  Kd: 1.8 nM

B12: IL-12p70 D42K (protein)
chain 1: B1 chain 1 with D42K, A90I
chain 2: B1 chain 2
IL-12RB2-hFc [1]
  Kd: 0.45 nM
IL-12RB1-hFc [2]
  Kd: 0.03 nM

B13: IL-12p70 K103A (protein)
chain 1: B1 chain 1 with A90I, K103A
chain 2: B1 chain 2
IL-12RB2-hFc [1]
  Kd: 0.33 nM
IL-12RB1-hFc [2]
  Kd: 0.04 nM

B14: IL-12p70 K59E (protein)
chain 1: B1 chain 1 with K59E, A90I
chain 2: B1 chain 2
IL-12RB2-hFc [1]
  Kd: 0.49 nM
IL-12RB1-hFc [2]
  Kd: 0.07 nM

B15: IL-12p70 D88K (protein)
chain 1: B1 chain 1 with D88K, A90I
chain 2: B1 chain 2
IL-12RB2-hFc [1]
  Kd: 0.31 nM
IL-12RB1-hFc [2]
  Kd: 0.02 nM

B16: IL-12p70 N104A (protein)
chain 1: B1 chain 1 with A90I, N104A
chain 2: B1 chain 2
IL-12RB2-hFc [1]
  Kd: 0.39 nM
IL-12RB1-hFc [2]
  Kd: 0.05 nM

B17: IL-12p70 K105A (protein)
chain 1: B1 chain 1 with A90I, K105A
chain 2: B1 chain 2
IL-12RB2-hFc [1]
  Kd: 0.34 nM
IL-12RB1-hFc [2]
  Kd: 0.06 nM

B18: IL-12p70 W16A D94K (protein)
chain 1: B1 chain 1 with W16A, A90I, D94K
chain 2: B1 chain 2
IL-12RB2-hFc [3]
  Kd: 2.4 nM

B19: IL-12p70 H195A (protein)
chain 1: B1 chain 1 with A90I, H195A
chain 2: B1 chain 2
IL-12RB2-hFc [1]
  Kd: 0.54 nM
IL-12RB1-hFc [2]
  Kd: 0.13 nM

B20: IL-12p70 E46K (protein)
chain 1: B1 chain 1 with E46K, A90I
chain 2: B1 chain 2
IL-12RB2-hFc [1]
  Kd: 0.52 nM
IL-12RB1-hFc [2]
  Kd: 0.04 nM

B21: IL-12p70 W91A (protein)
chain 1: B1 chain 1 with A90I, W91A
chain 2: B1 chain 2
IL-12RB2-hFc [1]
  Kd: 0.53 nM
IL-12RB1-hFc [2]
  Kd: 0.07 nM

B22: IL-12p70 P21A (protein)
chain 1: B1 chain 1 with P21A, A90I
chain 2: B1 chain 2
IL-12RB1-hFc [2]
  Kd: 0.06 nM

B23: IL-12p70 E87K,K196E (protein)
chain 1: B1 chain 1 with E87K, A90I, K196E
chain 2: B1 chain 2
IL-12RB2-hFc [1]
  Kd: 0.49 nM
IL-12RB1-hFc [2]
  Kd: 0.24 nM

B24: IL-12p70 H195E (protein)
chain 1: B1 chain 1 with A90I, H195E
chain 2: B1 chain 2
IL-12RB1-hFc [2]
  Kd: 0.06 nM

B25: IL-12p70 D94K K196E (protein)
chain 1: B1 chain 1 with A90I, D94K, K196E
chain 2: B1 chain 2
IL-12RB2-hFc [3]
  Kd: 2.3 nM

B26: IL-12p70 K103E (protein)
chain 1: B1 chain 1 with A90I, K103E
chain 2: B1 chain 2
IL-12RB2-hFc [1]
  Kd: 0.34 nM
IL-12RB1-hFc [2]
  Kd: 0.11 nM

B27: IL-12p70 D88A (protein)
chain 1: B1 chain 1 with D88A, A90I
chain 2: B1 chain 2
IL-12RB2-hFc [1]
  Kd: 0.38 nM
IL-12RB1-hFc [2]
  Kd: 0.03 nM

B28: IL-12p70 K59A (protein)
chain 1: B1 chain 1 with K59A, A90I
chain 2: B1 chain 2
IL-12RB2-hFc [1]
  Kd: 2.1 nM
IL-12RB1-hFc [2]
  Kd: 0.07 nM

B29: IL-12p70 K196A (protein)
chain 1: B1 chain 1 with A90I, K196A
chain 2: B1 chain 2
IL-12RB2-hFc [1]
  Kd: 0.58 nM
IL-12RB1-hFc [2]
  Kd: 0.04 nM

B30: IL-12p70 W16A D94K K196E K259Y (protein)
chain 1: B1 chain 1 with W16A, A90I, D94K, K196E, K259Y
chain 2: B1 chain 2
IL-12RB2-hFc [3]
  Kd: 1.9 nM
